Denaturant m value and unfolding free energy data for one protein are collected here from FireProtDB (doi:10.1002/prot.20212).

The conditions of this data set: Capra hircus, 25 °C, GdnHCl, CD, Tris 20 mM, Na+ 80 mM, whole UniProt chain shown.

Where “and” joins values, the source holds several entries; their conditions need not be identical. Equal values may be shown once.

B1: Alpha-lactalbumin wild type, P00712 (protein)
chain: MMSFVSLLLVGILFHATQAEQLTKCEVFQKLKDLKDYGGVSLPEWVCTAFHTSGYDTQAIVQNNDSTEYGLFQINNKIWCKDDQNPHSRNICNISCDKFLDDDLTDDIVCAKKILDKVGINYWLAHKALCSEKLDQWLCEKL
Turning to B1, the denaturant m value (pH 4.5, transition: 3) was 1.34 kcal/mol/M and 1.19 kcal/mol/M; the denaturant m value (pH 4.5) came to 2.53 kcal/mol/M; the denaturant m value (pH 5.5) was found to be 2.75 kcal/mol/M; the denaturant m value (pH 7.5) turned out to be 3 kcal/mol/M. In addition, the unfolding free energy (pH 4.5, transition: 3) was 3.39 kcal/mol and 3.38 kcal/mol; the unfolding free energy (pH 4.5) stood at 6.79 kcal/mol; the unfolding free energy (pH 5.5) turned out to be 8.8 kcal/mol; the unfolding free energy (pH 7.5) is 10.2 kcal/mol.
